{"source": "patent US20110142830A1", "binders": {"B1": {"name": "NT8-13 (peptide)", "chain": "RRPYIL"}}, "target": "sSortilin, Q99523", "sequence (Q99523 78-755)": "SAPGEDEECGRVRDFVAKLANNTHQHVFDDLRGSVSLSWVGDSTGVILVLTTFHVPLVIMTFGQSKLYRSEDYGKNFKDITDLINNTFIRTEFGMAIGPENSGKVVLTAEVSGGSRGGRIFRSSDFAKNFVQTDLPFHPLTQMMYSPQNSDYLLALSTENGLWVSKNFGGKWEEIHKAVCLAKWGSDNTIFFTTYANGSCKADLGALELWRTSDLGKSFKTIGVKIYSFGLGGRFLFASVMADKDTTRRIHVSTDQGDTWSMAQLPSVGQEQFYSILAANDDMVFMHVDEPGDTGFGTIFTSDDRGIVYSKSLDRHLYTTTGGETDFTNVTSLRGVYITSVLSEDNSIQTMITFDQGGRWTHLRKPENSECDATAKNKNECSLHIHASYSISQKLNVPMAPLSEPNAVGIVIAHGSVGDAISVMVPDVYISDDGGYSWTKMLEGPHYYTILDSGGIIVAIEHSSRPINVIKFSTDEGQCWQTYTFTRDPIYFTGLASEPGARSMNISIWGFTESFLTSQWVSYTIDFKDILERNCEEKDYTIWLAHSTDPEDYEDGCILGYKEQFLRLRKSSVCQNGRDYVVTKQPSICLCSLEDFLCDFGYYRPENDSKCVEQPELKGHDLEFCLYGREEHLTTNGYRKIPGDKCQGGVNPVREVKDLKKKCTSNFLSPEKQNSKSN", "experiment": "SPR", "settings": "modification not given"}
{"binder": "B1", "values": [{"measurement": "EC50", "value": 460, "unit": "nM"}]}
